A short description of the data set: yeast display, Sf9 membrane polyspecificity reagent, FACS + sequencing; frameworks hold sequencing errors. In short, it runs like this:
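A synthetic nanobody library was expressed on Saccharomyces cerevisiae BJ5465 by galactose induction for 36–48 hours. The library was stained for 1 hour at 4 °C with 10% biotinylated, detergent-solubilized Sf9 membrane reagent and enriched with streptavidin microbeads before FACS. Low and high (top ~1%) gates were set on anti-HA fluorescence for expression and streptavidin fluorescence for reagent binding, and each polyreactivity label reflects the gate of origin.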
Consider “QVQLVESGGGLVQAGGSLRLSCAASGSISGWYAMGWYRHAPGKERELVADISSIDGSTYYADSVKGRFTISRDNEKNTVYLQMNSLKPEDTSVYYCSADRGFYYEYDYWGQGTQVTVSS”, for which the “polyreactivity (PSR sort gate)” value is reported as “low polyreactivity”. For “QVQLVESRGALVQAGRSLRLRCAASGLIFYLYAMGWYRQAPGKARELVAAINYSGGRTYYADSVKGRFTISRDNAKNTVYLQMNSLKPEDTAVYYCAAKSAGFQYNYWGHGTQVTVSS”, the “polyreactivity (PSR sort gate)” value is given as “high polyreactivity”. As to “QVQLVESGGGLVQAGGSLRLSCAASGSIFGFNAMGWYRQAPGKEREFVAVISNRGGSTYYADSVKGRFTISRDNAKNTVYLQMNSLKPEDTAVYYCAARPYRDSGYWGQGTQVTVSS”, the “polyreactivity (PSR sort gate)” value was “high polyreactivity”. With “QVQLVESGGGLVQAGGTLRLSCAASGFTFGFKAMGWYRQAPGKEREFVASITYRGGSTYYADSVKGRFTISRDNAKNSVYLQMNSLKPEDTAVYFCATVSTRLRDYWGQGTQVTVSS” the entry was “high polyreactivity”; with “QVQLVESGGGLVQAGGSLRLSCAASGRIFFFNAMGWYRQAPGKERELVARITRGGSTNYADSVKGRFTISRDNAKNTVYLQMNILKPEDTAVYYCARDGYATTNARYGYDYWGQGTQVTVSS”, “low polyreactivity”. “QVQLVESGGGLVQAGGSLRLSCASSGSTVSVNAMGWSRQAPGKESEFVASISKRGGSTYYADSVKGRFTISRDNAKNTVYLQMNSLKPEDTAVYYCARVLTGPGRLDYWGQGTQVTVSS”: the “polyreactivity (PSR sort gate)” value was “high polyreactivity”. For the sequence “QVQLVESGGGLVQAGGSLRLSCAASGRTLNYNVLGWYRQAPGKERELVASITSRGGSTRYADSVKGRFTISRDHAKNTVYLQMNSLKPEDTAGYYCAARYTTARSSYDYWGQGTQVTVSS”, the “polyreactivity (PSR sort gate)” value is listed as “high polyreactivity”. As for “QVQLVESGGGLVQAGGSLRLSCAASGFTFSYYAMGWYRQAPGKERELVAAISSGGSTNYADSVKGRFTISRDNAKNTVYLQMNSLKPEVTAVYYCNVRLYYPTYASMEYWGQGTQVTVSS”, the “polyreactivity (PSR sort gate)” value was “low polyreactivity”. On to “QVHLVESGGGLVQAGGSLRLSCAASGFIFLGNAMGGYRQAPGKERELVAAISSGGSTYADSVKGRFTISRDNAKNTVYLQMNSLKPEDTAVYYCAVDRAFRAQNYHEYDYWGQGTQVTVSS”, for which the “polyreactivity (PSR sort gate)” value is “low polyreactivity”.

As for “QVQLVESGGGLVQAGGSLRLICAASGSIFGVYAMGWYSQAPGKERELVATITRGGSTYYADSVKGRFTISRDNAKNTGYLQMNSLKPEDTSVYYGARAPVYFRHKYYYWGQGTQVTVSS”, the “polyreactivity (PSR sort gate)” value is on record as “high polyreactivity”.

On to “QVQLVESGGGLVQAGGSLRLSCAASGRTFYGYAMGWYRQAPGKERELVAAISRRGGSTNYADSVKGRFTLSRDNAKNTVYLQMNSLKPEDTAVYYCNVAFRIPYRMDYWGQGTQVTVSS”, for which the “polyreactivity (PSR sort gate)” value is on record as “high polyreactivity”.

As for “QVQLVESGGALVQAGGSLRLSCAASGSTMGWYRQAPGKVREFVAAIRWIGGGTYYADSVKGRFTISRDNAKNTVYLQMNSLKPEDTGVYYCAARLSVAWVGYDYWGQGTQVTVSS”, the “polyreactivity (PSR sort gate)” value is “low polyreactivity”.

For the sequence “QVQLVESGGGLVQARGSLRLSCAASGSTFDYYAMGWYRQAPGKEWELVAAIDTSGDDTYYADSVKGRFTISRDNAKNTVYLQMNSLKPEDTAVYYCAADFPYDEVDYWGQGTQVTVSS”, the “polyreactivity (PSR sort gate)” value was “low polyreactivity”. In the case of “QVHLVESGGGLVQAGGSLRLSCAASGRIFGIYAMGWYRQAPGKERELVALITGGGSTNYADSVKGRFTISRDNAKNTVYLQMNSLKPEDTAVYYCAATVRRIVGNITRYDYWGQGTQVTVSS”, the “polyreactivity (PSR sort gate)” value was “low polyreactivity”. As for “QVQLVESGGGLVQAGGSLRLSCAASGFILGSNVMGWYRQAPGKERELVAAISYSGGSTYYADSVKGRFTISRDNAKNTVYLQMNSLKPEDTAVYYCARRLTREYDYWGQGTQVTVSS”, the “polyreactivity (PSR sort gate)” value is “low polyreactivity”. Take “QFQLVESRGGLVQAGGSLRLNCASSGSIFYSYAIGWYRQAPGKERELVAAITRGGSTYYADSVKGRFTISRDNAKNTVYLQMNSLKREDTAVYYCAAEFYSYKYPDYDYWGQGTQVTVSS”: the “polyreactivity (PSR sort gate)” value is listed as “low polyreactivity”.

Regarding “QVQLVESGGGLVQAGGSLRLSCAASGSIFPVNTMGWYRQAPGKERELVAAITQRGGRTYYADSVKGRFTISRDNAKNTVYFQMNSLKPEDTAVYYCNRDLGAGGYDYWGQGTQVTVSS”, the “polyreactivity (PSR sort gate)” value is on record as “low polyreactivity”. For the sequence “QVQLVESGGGLVQAGGSLRLSCAASGSIFWGYDMGWYRQAPGKERELVARISYSGGSTSYADSVKGRFTISRDNAKNTVYLQMNSLKPEDTAVYYCAADEGGFWWTYPYDSWGQGTQVTVSS”, the “polyreactivity (PSR sort gate)” value is “low polyreactivity”. Consider “QVQLEESGGGLVQAGGSLRISCAASGKIFSYNAMGWYRHAPGKERELVAAISRSGGSTYYADSVKGRFTISRDNAKNTVYLQMNSLKPEDTAVYYCAADWRGRKYDYWGQVTQVTVSS”, for which the “polyreactivity (PSR sort gate)” value is “high polyreactivity”. “QVQLVESGGGLVQAGGSLRLSCAASGRIFTGYAMGWYRQAPGKEREFVAAITGRGGSTYYADSVKGRFTISRDNAKNTVYLQMNSLKPEDTAVYYCNALPRSPWYYRGDYWGQGTQVTVSS”: the “polyreactivity (PSR sort gate)” value was “high polyreactivity”. With “QVQLVESGGGLVQAGGRLRLSCAASGSIFIYNAMGWYRQAPGKERELVATSSSGTRTYYADSVKGRFTISRDNAQNTVYFQMNSLKPEDTAVYNCAADGPFRRTYGDWGQGPQVTVSS”, the “polyreactivity (PSR sort gate)” value is recorded as “low polyreactivity”. For the sequence “QVQLVESGGGLVQAGGSLRLSCAASGFTFKWYAMGWYRQAPGKERELVATITIGGRTNYADSVKGRFTISRDNAKNTVYLQMNSLKPEDTAVYCCATFFVGFRLSDYDYWGQGTQVTVSS”, the “polyreactivity (PSR sort gate)” value is reported as “low polyreactivity”. With “QVQHVESWRGLVQAGGSLRLSCAASGSTNYPNAMGWSRQAPGKERELVPAITSGGSTYYADSVKGRFTISRDNAKNTVYLPMNSLKPEDTAVYYCAAQRRYHQDTTIGPGNYYYWGQGTQVTVSS”, the “polyreactivity (PSR sort gate)” value is “low polyreactivity”. On to “QVQLVESGGGLVQAGGSLRLSCAASGINFRSYAMGWYRQAPGKERELVAAISSTGRTYYADSVKGRFTISRDNAKNTVYLQMISLKPEDTAVYYCNSKRYIWGQGTQVTVSS”, for which the “polyreactivity (PSR sort gate)” value is reported as “high polyreactivity”. With “QVQLVESGGGLVQAGGSLRLSCAASGFNFADNAMGWYRQAPGKEREFVAAISRSGGTTYYADSVKGRFTISRDNAKNTVYLQMNSLKPEDTAVYYCATRLTSYPDYDYWGQGTQVTLSS”, the “polyreactivity (PSR sort gate)” value was “low polyreactivity”. For “QVQLVESGGGLVQAGGSLRLSCAASGRIFSYYDMGWYRQAPGKERELVAVISSRGGSTFYADSVKGRFTISRDNAKNTVYLLMNSLKAEDTAVYDCASRSLYVGYDYWGQCTQVTVSS”, the “polyreactivity (PSR sort gate)” value is “high polyreactivity”. In the case of “QVQLVESGGGLVQAGGSLRLSCAASGRTFYGYAMGWYRQAPGKERELVASIDGGGRTYYADSVKGRFTISRDNAKNTVYLQMNSLKPEYNGVYYCAKRSYQYGYPDGYGYWGQGTQVTVSS”, the “polyreactivity (PSR sort gate)” value is recorded as “low polyreactivity”. With “QVQLVESGGGLVQAGGSLRLSCAASGFIFEYYAMGWYRQAPGKERELVAAISQSGGSTYYADSVKGRFTISRDNAKNTVYLQMNSLKPEDTAVYYCNKTRYSRSYYEYDYWGQGTQVTVSS”, the “polyreactivity (PSR sort gate)” value is “low polyreactivity”.

In the case of “QVQLVESGGGLGQAGGSLRISCAASGRTFGIYAMGCYRQAPGKLRELVATISWRGGSTYYADSVKGRFTISRDNAKNTVYLQMNSLTPEDTAVYYCAAGPGYLILISDIYGYWGQGTQVTVSS”, the “polyreactivity (PSR sort gate)” value is given as “low polyreactivity”. With “QVQLVESAAGLVQAGGSLRLSCAASGFISPLYDMGGYRQAPGKERELVADITWRGGSTSYADSVKGRFTLSRDTAKKTGYLQMNSLKPEDTAVYYCAADARAFYYSNINGYWGQGTQVNVSS”, the “polyreactivity (PSR sort gate)” value is “high polyreactivity”.
